Source: PMC3741180, “A Novel High Throughput Biochemical Assay to Evaluate the HuR Protein-RNA Complex Formation” (PLoS ONE, 2013)

What was measured:
HuR/ELAVL1 = target: T1, HuR/ELAVL1 (Homo sapiens, UniProt Q15717); test: AlphaScreen ([…]) and REMSA ([…]) of rHuR-RNA complex formation; format: biochemical
T1 construct: full-length human HuR with C-terminal Myc-His tag (rHuR), purified from HEK293T cells

rHuR (HuR-Myc-His) [1] = target: T2, rHuR (HuR-Myc-His) (Homo sapiens, UniProt Q15717 1-326); test: AlphaScreen saturation binding; signal near background, probe 0-100 nM; AlphaScreen: 25 mM HEPES pH 7.4, 100 mM NaCl, 0.1% BSA, room temperature; REMSA: 20 mM HEPES pH 7.5, 50 mM KCl, 0.5 ug BSA, 0.25% glycerol, room temperature, 6% native gel 0.5X TBE at 4 C; conditions: protein: recombinant; tags: C-terminal c-Myc and His6; label: 5'-biotin; single strand
T2 sequence (Q15717 whole entry): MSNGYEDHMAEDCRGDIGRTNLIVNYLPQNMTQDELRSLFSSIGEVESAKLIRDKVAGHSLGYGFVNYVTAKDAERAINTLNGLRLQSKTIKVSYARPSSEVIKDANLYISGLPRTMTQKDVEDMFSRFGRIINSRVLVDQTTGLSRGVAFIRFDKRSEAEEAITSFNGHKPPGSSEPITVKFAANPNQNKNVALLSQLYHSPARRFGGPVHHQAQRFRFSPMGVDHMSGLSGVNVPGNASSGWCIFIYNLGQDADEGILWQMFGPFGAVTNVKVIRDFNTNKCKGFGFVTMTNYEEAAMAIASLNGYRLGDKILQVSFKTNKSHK

rHuR (HuR-Myc-His) [2] = target: T2, rHuR (HuR-Myc-His); test: AlphaScreen saturation binding; AlphaScreen: 25 mM HEPES pH 7.4, 100 mM NaCl, 0.1% BSA, room temperature; REMSA: 20 mM HEPES pH 7.5, 50 mM KCl, 0.5 ug BSA, 0.25% glycerol, room temperature, 6% native gel 0.5X TBE at 4 C; conditions: protein: recombinant; tags: C-terminal c-Myc and His6; label: 5'-biotin; single strand
rHuR (HuR-Myc-His) [3] = target: T2, rHuR (HuR-Myc-His); test: AlphaScreen saturation binding; repeat alongside Bi-COX; AlphaScreen: 25 mM HEPES pH 7.4, 100 mM NaCl, 0.1% BSA, room temperature; REMSA: 20 mM HEPES pH 7.5, 50 mM KCl, 0.5 ug BSA, 0.25% glycerol, room temperature, 6% native gel 0.5X TBE at 4 C; conditions: protein: recombinant; tags: C-terminal c-Myc and His6; label: 5'-biotin; single strand
rTTP (His-Strep-TTP) = target: T3, rTTP (His-Strep-TTP) (Mus musculus, UniProt P22893 1-319); test: AlphaScreen competition; rTTP displacing 1 nM rHuR from 50 nM Bi-TNF; AlphaScreen: 25 mM HEPES pH 7.4, 100 mM NaCl, 0.1% BSA, room temperature; REMSA: 20 mM HEPES pH 7.5, 50 mM KCl, 0.5 ug BSA, 0.25% glycerol, room temperature, 6% native gel 0.5X TBE at 4 C; conditions: protein: recombinant; tags: His-Strep; label: 5'-biotin; single strand
T3 sequence: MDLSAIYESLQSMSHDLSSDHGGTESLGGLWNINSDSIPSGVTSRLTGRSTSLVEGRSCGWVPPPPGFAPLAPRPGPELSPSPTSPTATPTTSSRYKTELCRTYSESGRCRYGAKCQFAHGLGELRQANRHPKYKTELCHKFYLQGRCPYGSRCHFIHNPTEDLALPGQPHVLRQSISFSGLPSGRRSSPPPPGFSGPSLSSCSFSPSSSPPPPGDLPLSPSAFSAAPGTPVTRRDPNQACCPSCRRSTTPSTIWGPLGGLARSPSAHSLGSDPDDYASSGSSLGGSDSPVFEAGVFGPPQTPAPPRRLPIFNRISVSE

rHuR (HuR-Myc-His) [4] = target: T2, rHuR (HuR-Myc-His); test: AlphaScreen competition; versus 50 nM Bi-TNF, 1 nM rHuR; AlphaScreen: 25 mM HEPES pH 7.4, 100 mM NaCl, 0.1% BSA, room temperature; REMSA: 20 mM HEPES pH 7.5, 50 mM KCl, 0.5 ug BSA, 0.25% glycerol, room temperature, 6% native gel 0.5X TBE at 4 C; conditions: protein: recombinant; tags: C-terminal c-Myc and His6; single strand

T1 sequence (Q15717 2-326): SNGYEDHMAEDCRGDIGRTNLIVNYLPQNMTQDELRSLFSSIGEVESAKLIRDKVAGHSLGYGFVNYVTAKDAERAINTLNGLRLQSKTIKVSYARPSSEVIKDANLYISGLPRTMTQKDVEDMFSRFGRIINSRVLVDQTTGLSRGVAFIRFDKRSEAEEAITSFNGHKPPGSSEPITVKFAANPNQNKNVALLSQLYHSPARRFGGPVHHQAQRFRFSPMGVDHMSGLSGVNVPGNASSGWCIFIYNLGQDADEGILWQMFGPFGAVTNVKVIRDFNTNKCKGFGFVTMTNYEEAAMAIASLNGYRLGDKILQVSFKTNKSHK

For `O=C1c2c(O)ccc(O)c2C(=O)c2c(NCCNCCO)ccc(NCCNCCO)c21` [compound 16, Mitoxantrone], the “AlphaScreen (25 nM) and REMSA (0.5 μM) of rHuR-RNA complex formation” value (HuR/ELAVL1) was “Mitoxantrone revealed to be a compound interfering with rHuR binding to Bi-TNF in both of our in vitro assays”.

ACCACCCACCACCCACCCACCACCCA (ssRNA) [Bi-TNFneg]: no binding (rHuR (HuR-Myc-His) [1]).

In the case of UAUUAAUUUAAUUAUUUAAUAAUAUUU (ssRNA) [Bi-COX], the Kd (rHuR (HuR-Myc-His) [2]) is reported as 4.58 ± 1.2 nM.

AUUAUUUAUUAUUUAUUUAUUAUUUA (ssRNA) [Bi-TNF] was tested, and the Kd (rHuR (HuR-Myc-His) [2]) was 2.5 ± 0.6 nM, the Kd (rHuR (HuR-Myc-His) [3]) was 2.75 nM and the Ki (rTTP (His-Strep-TTP)) was 1.76 ± 0.41 pM.

Molecule AUUAUUUAUUAUUUAUUUAUUAUUUA (ssRNA) [U-TNF] has a Ki (rHuR (HuR-Myc-His) [4]) of 4.49 ± 1.1 nM.
